Five molecules from publication PMC6479836, “Interaction of Nerve Growth Factor β with Adiponectin and SPARC Oppositely Modulates its Biological Activity” (International Journal of Molecular Sciences, 2019) can be followed below.

One may read the Kd as a measure of binding affinity in units of concentration. The term koff denotes a measure of how fast the partners let go of each other. What is called kon is the rate constant with which the complex forms.

Test [1] concerns the target Secreted protein, acidic and rich in cysteine (SPARC) (UniProt P09486). The test can be described thus: SPR; BIAcore X; SPARC immobilised on CM5 chip (3574 RU); growth factors as analytes in HBS-EP (10 mM HEPES, 150 mM NaCl, 0.005% Surfactant P20, pH 7.4), 37 °C, 20 µL/min, 105 s association, 120 s dissociation. Background: Surface plasmon resonance follows binding to a sensor surface in real time, without labels.

Test [2] has as its target Recombinant murine globular adiponectin (murine). The experiment in a line: SPR; BIAcore X; globular adiponectin immobilised on CM5 chip (12707 RU); growth factors as analytes in HBS-EP pH 7.4, 37 °C, 20 µL/min, 105 s association, 120 s dissociation.
Test [3] deals with T1, Recombinant murine full-length adiponectin (murine, UniProt Q60994 18-247).
T1 construct: also called fADPN; source: bought: Biovender Laboratory Medicine, Inc
T1 sequence (looked up): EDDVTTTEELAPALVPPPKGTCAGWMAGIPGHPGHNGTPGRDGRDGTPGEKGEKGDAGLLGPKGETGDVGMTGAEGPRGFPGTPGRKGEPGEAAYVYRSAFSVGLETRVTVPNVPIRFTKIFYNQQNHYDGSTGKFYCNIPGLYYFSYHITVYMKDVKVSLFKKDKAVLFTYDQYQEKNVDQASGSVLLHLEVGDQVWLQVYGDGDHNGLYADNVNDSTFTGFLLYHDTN
The experiment in a line: SPR; BIAcore X; full length adiponectin immobilised on CM5 chip (2025 RU); growth factors as analytes in HBS-EP pH 7.4, 37 °C, 20 µL/min, 105 s association, 120 s dissociation. The note with it: both partners purified.

Sequence of Secreted protein, acidic and rich in cysteine (SPARC) (P09486 18-303): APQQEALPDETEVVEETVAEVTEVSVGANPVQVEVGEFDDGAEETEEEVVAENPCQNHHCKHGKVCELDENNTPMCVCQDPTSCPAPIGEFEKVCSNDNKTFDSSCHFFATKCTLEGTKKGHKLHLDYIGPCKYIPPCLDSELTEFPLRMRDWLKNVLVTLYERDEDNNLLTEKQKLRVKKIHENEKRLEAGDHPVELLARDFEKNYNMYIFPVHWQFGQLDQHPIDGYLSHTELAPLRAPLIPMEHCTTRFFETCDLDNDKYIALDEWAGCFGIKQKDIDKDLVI

In test [1], “Recombinant human transforming growth factor β1 (TGFβ1) (from UniProt P01137 279-390) (ligand)” yielded a dissociation constant Kd of 24300 nM, an off-rate constant (koff) of 0.0192 s⁻¹ and a kon of 790 M⁻¹ s⁻¹.

“Recombinant human vascular endothelial growth factor VEGF-165 (ligand)”: in test [1], the dissociation constant Kd was determined as 54.4 nM, the koff is 0.00413 s⁻¹ and the kon was 75800 M⁻¹ s⁻¹.

With “Recombinant human basic fibroblast growth factor (FGF2) (from UniProt P09038 143-288) (ligand)”, in test [1], the dissociation constant (Kd) is 14400 nM, the off-rate (koff) came out at 0.00195 s⁻¹ and the association rate constant (kon) is 135 M⁻¹ s⁻¹.

B1: Nerve growth factor β (NGFβ) from mouse submaxillary glands (ligand, UniProt P01139 122-241, looked up)
chain: SSTHPVFHMGEFSVCDSVSVWVGDKTTATDIKGKEVTVLAEVNINNSVFRQYFFETKCRASNPVESGCRGIDSKHWNSYCTTTHTFVKALTTDEKQAAWRFIRIDTACVCVLSRKATRRG
notes: beta-nerve growth factor, mouse, the beta chain from submaxillary glands; The same protein was also tested after boiling (denatured), as a control; source: from mouse submaxillary glands; bought: Alomone Labs
For the molecule B1, the Kd in test [2] is 1260 nM; in test [3] it was 103 nM; in test [1], 59.4 nM. Further, the off-rate constant (koff) in test [2] turned out to be 0.0145 s⁻¹; in test [3] it was 0.00597 s⁻¹; in test [1], 0.011 s⁻¹. The kon stood at 11500 M⁻¹ s⁻¹ in test [2], 57600 M⁻¹ s⁻¹ in test [3] and 186000 M⁻¹ s⁻¹ in test [1].

B2: Recombinant human platelet-derived growth factor-BB (PDGF-BB) (ligand, UniProt P01127 82-190, looked up)
chain: SLGSLTIAEPAMIAECKTRTEVFEISRRLIDRTNANFLVWPPCVEVQRCSGCCNNRNVQCRPTQVQLRPVQVRKIEIVRKKPIFKKATVTLEDHLACKCETVAAARPVT
notes: PDGF B chain, human, recombinant; The two copies follow from the printed name BB; source: bought: Wako Pure Chemical
For the molecule B2, in test [2], the Kd amounted to 70.4 nM, the dissociation rate constant (koff) stood at 0.00738 s⁻¹ and the on-rate constant (kon) came to 105000 M⁻¹ s⁻¹. In test [3], the Kd was found to be 24.5 nM, the off-rate (koff) was 2.82e-05 s⁻¹ and the on-rate (kon) is 1150 M⁻¹ s⁻¹. In test [1], the Kd was determined as 24.3 nM, the off-rate (koff) is 0.000903 s⁻¹ and the kon was 37100 M⁻¹ s⁻¹.
